# Experimental data taken from the supplement of paper PMC10567573.
# B1: PKD2L1 (parent)
# chain: YSGGGYYLDLPGSRQGSAEALRAL
# B2: SLC2A12 (parent)
# chain: CLLGLGSLVLILSLSYTVLIVGRI
# Variants of: B1
# Experiment: protein stability index of a GFP-peptide fusion (GPS, HEK-293T) (PSI 1-6); higher = more stable
# Conditions: c terminus: a fixed tail appended
# 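Further: lentivirally expressed fusions sorted by FACS into six bins by GFP to DsRed ratio, PSI derived from sequencing read proportions per bin multiplied by bin number.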
row,Variant,protein stability index
1,S17P,2.32
2,S17H,2.36
3,S17M,2.3
4,S17D,1.92
5,S17K,1.78
6,S17W,1.98
7,S17E,2
8,S17C,1.39
9,S17F,1.98
10,S17V,1.61
11,S17G,3.5
12,S17R,1.41
13,S17N,2.01
14,S17I,1.75
15,S17Q,3.08
16,S17T,2
17,S17L,2.13
18,S17A,1.6
19,S17Y,2.03
20,Q15C,3.34
21,Q15M,2.81
22,Q15N,1.94
23,Q15W,1.73

row,Variant,protein stability index
1,Q15H,1.28
2,Q15G,1.47
3,Q15I,3.59
4,Q15Y,2.17
5,Q15K,2.5
6,Q15E,2.16
7,Q15P,2.03
8,Q15V,2.99
9,Q15S,1.83
10,Q15F,1.61
11,Q15R,2.27
12,Q15T,1.21
13,Q15A,2.41
14,Q15D,1.98
15,Q15L,1.74
16,L21H,2.05
17,L21W,1.29
18,L21G,1.89
19,L21T,1.86
20,L21K,2.26
21,L21A,1.46
22,L21E,1.36
23,L21S,2.27

row,Variant,protein stability index
1,L21R,1.25
2,L21N,1.99
3,L21Y,1.91
4,L21P,2.23
5,L21F,2.09
6,L21Q,1.87
7,L21I,1.75
8,L21V,1.8
9,L21C,1.41
10,L21M,3.01
11,L21D,1.98
12,E19S,1.49
13,E19Y,2.23
14,E19D,1.81
15,E19F,2.33
16,E19M,2.09
17,E19R,2.16
18,E19G,2.02
19,E19L,1.84
20,E19H,1.42
21,E19N,1.77
22,E19A,1.64
23,E19T,1.77

row,Variant,protein stability index
1,E19W,1.74
2,E19Q,1.63
3,E19P,2.03
4,E19C,2.27
5,E19K,1.98
6,E19I,1.45
7,E19V,1.89
8,A23I,1.66
9,A23V,2.45
10,A23K,1.72
11,A23P,2.19
12,A23Y,1.53
13,A23T,2.24
14,A23D,2.21
15,A23R,2.26
16,A23L,1.73
17,A23E,1.95
18,A23W,2.22
19,A23Q,2.53
20,A23F,2.52
21,A23G,1.44
22,A23C,1.59
23,A23S,1.86

row,Variant,protein stability index
1,A23H,2.09
2,A23N,2.05
3,A23M,2.03
4,R14Y,2
5,R14M,2.08
6,R14T,2.15
7,R14V,1.91
8,R14L,2.71
9,R14G,2.24
10,R14P,1.37
11,R14Q,1.55
12,R14S,1.57
13,R14H,1.84
14,R14F,1.32
15,R14W,2.36
16,R14D,1.82
17,R14E,1.75
18,R14K,2.56
19,R14N,1.63
20,R14I,2.55
21,R14C,1.55
22,R22Y,2.02
23,R22S,2.92

row,Variant,protein stability index
1,R22G,1.69
2,R22D,1.26
3,R22Q,1.5
4,R22T,1.82
5,R22M,2.61
6,R22V,2.03
7,R22L,1.36
8,R22K,2.08
9,R22N,1.65
10,R22C,2.11
11,R22P,1.78
12,R22H,1.92
13,R22W,3.79
14,R22I,3.18
15,R22E,1.86
16,R22F,2.84
17,R22A,2.13
18,A18Q,2.15
19,A18D,2.65
20,A18E,1.71
21,A18F,1.57
22,A18Y,1.75
23,A18R,1.71

row,Variant,protein stability index
1,A18I,1.55
2,A18K,2.75
3,A18S,1.5
4,A18H,1.61
5,A18V,1.49
6,A18M,1.88
7,A18P,1.79
8,A18W,1.61
9,A18G,1.81
10,A18L,2.12
11,A18N,1.86
12,A18T,1.35
13,A18C,2.16
14,G16E,1.92
15,G16Y,2.13
16,G16P,1.92
17,G16Q,2
18,G16S,2.27
19,G16M,1.02
20,G16K,1.97
21,G16L,1.57
22,G16A,1.94
23,G16H,2.66

row,Variant,protein stability index
1,G16R,1.98
2,G16V,1.77
3,G16I,2.3
4,G16F,1.38
5,G16N,1.51
6,G16C,1.86
7,G16W,2.5
8,G16D,2.02
9,G16T,1.84
10,A20M,1.81
11,A20R,1.29
12,A20I,1.37
13,A20W,2.36
14,A20G,1.66
15,A20K,1.74
16,A20L,1.72
17,A20C,3.77
18,A20Q,1.66
19,A20T,2.65
20,A20Y,1.76
21,A20N,2.02
22,A20H,1.25
23,A20D,1.86

row,Variant,protein stability index
1,A20S,2.2
2,A20V,1.6
3,A20P,2.62
4,A20F,2.64
5,L24T,1.61
6,L24I,1.63
7,L24A,1.85
8,L24G,2.63
9,L24Y,2.12
10,L24P,2.7
11,L24N,2.1
12,L24F,1.99
13,L24R,2.34
14,L24M,1.63
15,L24H,2.65
16,L24D,1.6
17,L24S,2.41
18,L24C,1.62
19,L24Q,1.17
20,L24V,2.33
21,L24W,1.62
22,L24K,2.91
23,L24E,1.49

# Variants of: B2
# Experiment: as above
# Conditions: c terminus: a fixed tail appended
row,Variant,protein stability index
1,Y16M,3.02
2,Y16W,1.91
3,Y16P,3.53
4,S7P,2.76
5,S7K,2.01
6,S7T,2.51
7,S7N,2.72
8,S7A,3.86
9,S7R,1.8
10,T17E,3.32
11,T17N,2.91
12,T17F,3.38
13,T17Y,2.3
14,V21F,4.2
15,V21L,2.77
16,V21Y,3.38
17,V21P,3.7
18,V21E,1.97
19,V21C,3.06
20,G4L,4.03
21,G4D,3.12
22,G4F,3.56
23,L14F,2.16
24,L14E,2.46
25,L14D,2.03
26,L14V,3.61

row,Variant,protein stability index
1,L14H,3.01
2,R23T,2.41
3,R23K,3.91
4,R23L,2.88
5,R23M,2.33
6,R23Q,2.57
7,R23C,3.83
8,R23I,1.07
9,R23Y,1.35
10,R23F,1.85
11,R23A,1.68
12,S13D,2.82
13,S13R,1.87
14,S13I,3.33
15,S13F,3.31
16,L8H,2.87
17,L8P,2.7
18,L8I,3
19,L8D,4.51
20,L3T,1.32
21,L3K,2.17
22,L3N,2.92
23,I24S,4.47
24,I24W,3.02
25,I24L,2.31
26,I24H,4.96

row,Variant,protein stability index
1,I24V,2.79
2,I24K,2.5
3,I24F,2.09
4,V9Y,2.23
5,V9D,3.2
6,V9K,1.27
7,V9S,3.94
8,V9F,3.79
9,V9H,2.07
10,I11Y,1.36
11,I11W,1.42
12,I11D,3.63
13,G6C,4.32
14,G6I,2.69
15,G6D,3.1
16,G6A,2.43
17,G6Y,3.29
18,G6F,2.27
19,G6H,2.78
20,G6E,3.33
21,G6T,2.06
22,L19H,3.95
23,L19P,3.35
24,L19R,4.06
25,L19V,3.24
26,L19N,2.96

row,Variant,protein stability index
1,L19W,1.77
2,L5M,3.94
3,L5Q,2.45
4,L5E,2.46
5,L5R,2.84
6,L5I,3.48
7,L5H,2.6
8,L2Q,1.55
9,L2C,2.93
10,L2H,3.48
11,L2M,2.96
12,L10K,2.9
13,L10S,2.96
14,L10W,3.03
15,L10C,3.02
16,L10T,3.09
17,S15H,3.25
18,S15N,3.57
19,S15Q,1.91
20,L12P,2.04
21,L12I,1.58
22,L12V,3.35
23,L12N,2.87
24,L12T,2.44
25,L12Y,3.84
26,L12W,3.73

row,Variant,protein stability index
1,L12S,1.92
2,C1R,2.88
3,C1K,1.68
4,C1W,1.27
5,C1L,2.46
6,C1I,1.83
7,C1N,2.15
8,C1M,2.46
9,V18L,2.48
10,V18T,2.93
11,V18H,2.43
12,V18S,3.07
13,V18M,4.12
14,V18F,1.87
15,I20M,2.69
16,I20N,3.97
17,I20Q,3.17
18,G22E,3.84
19,G22F,3.4
20,G22T,4.65
21,G22H,2.75
22,G22S,2.04
23,G22Q,3.23
